Laboratory results: patent publication US20200297760A1, “COMPOSITIONS AND METHODS FOR REDUCING IMMUNE RESPONSES AGAINST CHIMERIC ANTIGEN RECEPTORS” (Juno Therapeutics, Inc., priority 2015, published 2020)

Columns and labels:
Settings in all cases: remark: other sources report otherwise
[1] = target: HLA-A*11:01 (recombinant MHC class I molecule) (human); experiment: REVEAL MHC-peptide binding assay, recombinant HLA-A*11:01
[2] = target: HLA-B*08:01 (recombinant MHC class I molecule) (human); experiment: REVEAL MHC-peptide binding assay, recombinant HLA-B*08:01
HLA-A*03:01 (human) = experiment: REVEAL MHC-peptide binding assay, recombinant HLA

WVQRGRKKL
In Vitro Score (score, % of positive control peptide) [1]: 12.8 | In Vitro Score (score, % of positive control peptide) [2]: 45.1

WVKRGHKKL
In Vitro Score (score, % of positive control peptide) [1]: 2.8 | In Vitro Score (score, % of positive control peptide) [2]: 47.6

WVKRGSKKL
In Vitro Score (score, % of positive control peptide) [1]: 11.8 | In Vitro Score (score, % of positive control peptide) [2]: 56.1

AFIIFWVAR
In Vitro Score (score, % of positive control peptide) [1]: 51.8 | In Vitro Score (score, % of positive control peptide) [2]: 0.2

VAFIIFWVS
In Vitro Score (score, % of positive control peptide) [1]: 25.1 | In Vitro Score (score, % of positive control peptide) [2]: 0.1

IIFWVKRGA
In Vitro Score (score, % of positive control peptide) [1]: 22.6 | In Vitro Score (score, % of positive control peptide) [2]: 0.9

IFWVKRGSK
In Vitro Score (score, % of positive control peptide) [1]: 47.9 | In Vitro Score (score, % of positive control peptide) [2]: 1.2

IIFWVKRGS
In Vitro Score (score, % of positive control peptide) [2]: 0.4

AFIIFWVSR
In Vitro Score (score, % of positive control peptide) [1]: 54 | In Vitro Score (score, % of positive control peptide) [2]: 0.3

AFIIFWVHR
In Vitro Score (score, % of positive control peptide) [1]: 34.9 | In Vitro Score (score, % of positive control peptide) [2]: 0.3

IFWVKRGNK
In Vitro Score (score, % of positive control peptide) [1]: 45.9 | In Vitro Score (score, % of positive control peptide) [2]: 0.1

IFWVARGRK
In Vitro Score (score, % of positive control peptide) [1]: 34.9 | In Vitro Score (score, % of positive control peptide) [2]: 0

IFWVSRGRK
In Vitro Score (score, % of positive control peptide) [1]: 39.2 | In Vitro Score (score, % of positive control peptide) [2]: 0

IFWVQRGNK
In Vitro Score (score, % of positive control peptide) [1]: 67.5 | In Vitro Score (score, % of positive control peptide) [2]: 0.1

IIFWVKRGN [Synthetic peptide …, listing 1 of 2 here]
In Vitro Score (score, % of positive control peptide) [1]: 42.1 | In Vitro Score (score, % of positive control peptide) [2]: 0.9

IIFWVLRGR […, listing 1 of 2 here]
In Vitro Score (% of positive control peptide) (HLA-A*03:01 (human)): 2.8

WVKRGNKKL
In Vitro Score (score, % of positive control peptide) [1]: 4.1 | In Vitro Score (score, % of positive control peptide) [2]: 65.9

IIFWVQRGA
In Vitro Score (score, % of positive control peptide) [1]: 56.5 | In Vitro Score (score, % of positive control peptide) [2]: 0.2

IFWVQRGRK
In Vitro Score (score, % of positive control peptide) [1]: 128 | In Vitro Score (score, % of positive control peptide) [2]: 0

IFWVHRGRK
In Vitro Score (score, % of positive control peptide) [1]: 36.6 | In Vitro Score (score, % of positive control peptide) [2]: 0.1

VAFIIFWVK
In Vitro Score (score, % of positive control peptide) [1]: 109 | In Vitro Score (score, % of positive control peptide) [2]: 0.3

FIIFWVHRG
In Vitro Score (score, % of positive control peptide) [1]: 0.9 | In Vitro Score (score, % of positive control peptide) [2]: 0.2

WVQRGNKKL
In Vitro Score (score, % of positive control peptide) [1]: 10.7 | In Vitro Score (score, % of positive control peptide) [2]: 32

IIFWVARGR […, listing 1 of 2 here]
In Vitro Score (% of positive control peptide) (HLA-A*03:01 (human)): 18.6

WVKRGAKKL
In Vitro Score (score, % of positive control peptide) [1]: 4.6 | In Vitro Score (score, % of positive control peptide) [2]: 34.1

IIFWVKRGN […, listing 2 of 2 here]
In Vitro Score (% of positive control peptide) (HLA-A*03:01 (human)): 4.3

WVARGRKKL […, listing 1 of 2 here]
In Vitro Score (% of positive control peptide) (HLA-A*03:01 (human)): 1.3

IIFWVLRGR [Synthetic peptide …, listing 2 of 2 here]
In Vitro Score (score, % of positive control peptide) [1]: 35.2 | In Vitro Score (score, % of positive control peptide) [2]: 0.4

IIFWVKRGL
In Vitro Score (score, % of positive control peptide) [1]: 32.4 | In Vitro Score (score, % of positive control peptide) [2]: 1.7

IIFWVARGR [Synthetic peptide …, listing 2 of 2 here]
In Vitro Score (score, % of positive control peptide) [1]: 70.6 | In Vitro Score (score, % of positive control peptide) [2]: 0.3

IIFWVHRGR
In Vitro Score (score, % of positive control peptide) [1]: 77.5 | In Vitro Score (score, % of positive control peptide) [2]: 0.2

IIFWVSRGR
In Vitro Score (score, % of positive control peptide) [1]: 68.9 | In Vitro Score (score, % of positive control peptide) [2]: 0

IFWVKRGHK
In Vitro Score (score, % of positive control peptide) [1]: 30.9 | In Vitro Score (score, % of positive control peptide) [2]: 3.2

IFWVKRGLK
In Vitro Score (score, % of positive control peptide) [1]: 61.1 | In Vitro Score (score, % of positive control peptide) [2]: 58.3

WVARGRKKL [Synthetic peptide …, listing 2 of 2 here]
In Vitro Score (score, % of positive control peptide) [1]: 13.8 | In Vitro Score (score, % of positive control peptide) [2]: 32.4

IIFWVKRGR
In Vitro Score (score, % of positive control peptide) [1]: 54.5 | In Vitro Score (score, % of positive control peptide) [2]: 0

IFWVQRGAK
In Vitro Score (score, % of positive control peptide) [1]: 61.3 | In Vitro Score (score, % of positive control peptide) [2]: 0.2

IFWVKRGAK
In Vitro Score (score, % of positive control peptide) [1]: 69.7 | In Vitro Score (score, % of positive control peptide) [2]: 2.2

IIFWVQRGR
In Vitro Score (score, % of positive control peptide) [1]: 72.8 | In Vitro Score (score, % of positive control peptide) [2]: 0.1
